One protein from publication PMC4939079 (Nature structural & molecular biology, 2016) can be followed below.

The data set concerns the molecule itself. The data set is described as follows: affinity purification with mass spectrometry.

B1: Bap1-GFP (natural protein)
chain: MNKGWLELESDPGLFTLLVEDFGVKGVQVEEIYDLQSKCQGPVYGFIFLFKWIEERRSRRKVSTLVDDTSVIDDDIVNNMFFAHQLIPNSCATHALLSVLLNCSNVDLGPTLSRMKDFTKGFSPESKGYAIGNAPELAKAHNSHARPEPRHLPEKQNGLSAVRTMEAFHFVSYVPITGRLFELDGLKVYPIDHGPWGEDEEWTDKARRVIMERIGLATAGEPYHDIRFNLMAVVPDRRIKYETRLHVLKVNRQTVLEALQQLIRVTQPELIQTHKSQESQLPEESKPASSKSPLGLEAGRTPVASECTQTDGAEEVAGSCPQTTTHSPPSKCKLVVKPPGSSLNGVPPNPAPIVQRLPAFLDNHNYAKSPMQEEEDLAAGVGRSRVPVRAPQQYSEDEDDYEDEDEDVQNTNPAIRYKRKGTGKPGSLSNSSDGQLSVLQPNTINVLTEKLQESQKDLSVPLSIKTSSGAGSPAVAVPTHSQPSPTPSNESTDTASEIGSAFNSPLRSPIRSANPTRPSSPVTSHISKVLFGEDDSLLRVDCIRYNRAVRDLGPVISTGLLHLAEDGVLSPLALTEGGKGSSPSTRSSQGSQGSSGLEEKEVVEVTESRDKPGLNRSSEPLSGEKYSPKELLALLKCVEAEIANYEACLKEEVEKRKKFKIDDQRRTHNYDEFICTFISMLAQEGMLANLVEQNISVRRRQGVSIGRLHKQRKPDRRKRSRPYKAKRQ
Take B1: the “stoichiometry N” value was about 2.
